Data as given in US20240301071A1 (Alector, published 2024).
Substitutions are numbered along the chain they refer to.

B1: 3F9-9 (antibody, human IgG1, V domains shown)
VH: EVQLLESGGGLVQPGGSLRLSCAASGFTFSSYAMSWVRQAPGKGLEWVATISEYGGSYTYYAESVKGRFTISRDNSKNTLYLQMNSLRAEDTAVYYCARPPYDDYYGGFAYWGQGTLVTVSS
VL: DIQLTQSPSSLSASVGDRVTITCRASKSVSSGGYSYMHWYQQKPGKAPKLLIYLASNLESGVPSRFSGSGSGTDFTLTISSVQPEDFATYYCQHNRELPWTFGQGTKLEIK
notes: also called mAb 3F9-9
B2: 3F9-25 (antibody, human IgG1, V domains shown)
VH: B1 VH with A110Q
VL: B1 VL
notes: also called mAb 3F9-25
B3: 3F9-11 (antibody, human IgG1, V domains shown)
VH: B1 VH with A110R
VL: B1 VL with W100I
notes: also called mAb 3F9-11
B4: 3F9-23 (antibody, human IgG1, V domains shown)
VH: B1 VH with A110Q
VL: B1 VL with W100A
notes: also called mAb 3F9-23
B5: 3F9-20 (antibody, human IgG1, V domains shown)
VH: B1 VH with A110Q
VL: B1 VL with W100P
notes: also called mAb 3F9-20
B6: 3F9-18 (antibody, human IgG1, V domains shown)
VH: B1 VH with A110Q
VL: B1 VL with W100S
notes: also called mAb 3F9-18
B7: 3F9-13 (antibody, human IgG1, V domains shown)
VH: B1 VH with A110R
VL: B1 VL with W100T
notes: also called mAb 3F9-13
B8: 3F9-19 (antibody, human IgG1, V domains shown)
VH: B1 VH with A110Q
VL: B1 VL with W100I
notes: also called mAb 3F9-19
B9: 3F9-15 (antibody, human IgG1, V domains shown)
VH: B1 VH with A110R
VL: B1 VL with W100A
notes: also called mAb 3F9-15
B10: 3F9-16 (antibody, human IgG1, V domains shown)
VH: B1 VH with A110R
VL: B1 VL with W100G
notes: also called mAb 3F9-16
B11: 3F9-17 (antibody, human IgG1, V domains shown)
VH: B1 VH with A110R
VL: B1 VL
notes: also called mAb 3F9-17
B12: 3F9-12 (antibody, human IgG1, V domains shown)
VH: B1 VH with A110R
VL: B1 VL with W100P
notes: also called mAb 3F9-12
B13: 3F9-24 (antibody, human IgG1, V domains shown)
VH: B1 VH with A110Q
VL: B1 VL with W100G
notes: also called mAb 3F9-24
B14: 3F9-21 (antibody, human IgG1, V domains shown)
VH: B1 VH with A110Q
VL: B1 VL with W100T
notes: also called mAb 3F9-21
B15: 3F9-10 (antibody, human IgG1, V domains shown)
VH: B1 VH with A110R
VL: B1 VL with W100S
notes: also called mAb 3F9-10
B16: mAb 14.70.4 (antibody, human IgG4, V domains shown)
VH: B1 VH with E53D, E63D
VL: B1 VL with L4M, G32S, V82L, W100C
notes: also called h3F9 H2/L1; h3F9 IgG4
B17: mAb 14.70.2 (antibody, human IgG4, V domains shown)
VH: B1 VH with A49S, E53D, E63D, R99K
VL: B1 VL with G32S, W100C
notes: also called h3F9 H1/L2; h3F9 IgG4
B18: 3F9-22-huIgG1 PS (antibody)
heavy: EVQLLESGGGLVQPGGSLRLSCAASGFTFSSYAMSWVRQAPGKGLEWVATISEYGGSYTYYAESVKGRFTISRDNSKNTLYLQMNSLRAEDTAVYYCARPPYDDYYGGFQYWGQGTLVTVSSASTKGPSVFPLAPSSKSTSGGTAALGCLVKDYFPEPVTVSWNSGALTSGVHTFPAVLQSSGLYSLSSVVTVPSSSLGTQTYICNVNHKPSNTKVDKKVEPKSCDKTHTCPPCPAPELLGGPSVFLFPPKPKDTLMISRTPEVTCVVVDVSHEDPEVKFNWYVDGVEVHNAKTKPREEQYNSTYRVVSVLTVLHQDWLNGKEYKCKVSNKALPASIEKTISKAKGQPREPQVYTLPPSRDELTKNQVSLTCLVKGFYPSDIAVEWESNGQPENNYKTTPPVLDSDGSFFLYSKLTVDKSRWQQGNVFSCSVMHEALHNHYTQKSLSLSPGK
light: DIQLTQSPSSLSASVGDRVTITCRASKSVSSGGYSYMHWYQQKPGKAPKLLIYLASNLESGVPSRFSGSGSGTDFTLTISSVQPEDFATYYCQHNRELPVTFGQGTKLEIKRTVAAPSVFIFPPSDEQLKSGTASVVCLLNNFYPREAKVQWKVDNALQSGNSQESVTEQDSKDSTYSLSSTLTLSKADYEKHKVYACEVTHQGLSSPVTKSFNRGEC

target: T1, histidine-tagged human SIRPA v1 (Novoprotein) (human, UniProt P78324 31-370, limits assumed); assay: BLI (Octet), antibody on anti-human IgG Fc sensor, His-huSIRPA in solution, single-curve 1:1 fit
T1 construct: bought, soluble; also called huSIRPA; soluble huSIRPA; not shown: histidine tag
T1 sequence (P78324 31-370 limits assumed): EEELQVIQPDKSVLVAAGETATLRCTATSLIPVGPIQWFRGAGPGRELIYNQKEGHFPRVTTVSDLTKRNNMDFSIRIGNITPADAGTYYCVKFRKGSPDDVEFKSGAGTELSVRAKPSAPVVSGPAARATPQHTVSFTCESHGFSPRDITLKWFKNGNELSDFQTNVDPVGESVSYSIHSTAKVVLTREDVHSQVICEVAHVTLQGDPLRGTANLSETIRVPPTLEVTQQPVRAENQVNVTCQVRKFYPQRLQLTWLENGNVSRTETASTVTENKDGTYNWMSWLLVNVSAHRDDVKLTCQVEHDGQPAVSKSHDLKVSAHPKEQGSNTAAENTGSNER
Method: (§1) Initial characterization of affinity matured anti-SIRPA antibodies disclosed herein comprised acquiring antigen affinity measurements using bio-layer interferometry (BLI) on a Pall ForteBio Octet RED96 instrument. Immobilized anti-mouse IgG Fc or anti-human IgG Fc antibodies captured murine anti-SIRPA 3F79 antibody and humanized anti-SIRPA 3F79 antibody on biosensors, respectively. Single cycle kinetics were performed with 25 nM huSIRPA [which variant?] or 50 nM huSIRPB 1 flowed over captured antibody 3F79 to record traces. Data analysis was performed using ForteBio Data Analysis Software, version 9.0. Standard kinetic buffer (PBS, 0.100 BSA, 0.02% Tween-20, pH 7.2) was used for the assay and for preparing reagents. […] 50 nM of histidine-tagged human SIRPA vi or human SIRPB1 (Novoprotein, Summit, NJ, USA) were then bound to the captured anti-SIRPA antibody coated surface (200 s association time, 900 s dissociation time). […] Single-curve kinetic analysis was performed using a 1:1 interaction model to extract association and dissociation rate constants (ka and kd, respectively) for each antibody. Affinity constants (KD) were calculated from the ratio kd/ka.

| Kd [nM] | koff [s⁻¹] | kon [M⁻¹ s⁻¹] | Binder |
| --- | --- | --- | --- |
| 3.38 | 0.000302 | 89400 | B1 |
| 1.06 | 0.000162 | 153000 | B2 |
| 1.43 | 0.000192 | 134000 | B3 |
| 0.539 | 9.11e-05 | 169000 | B4 |
| 0.85 | 0.000128 | 150000 | B5 |
| 0.419 | 5.74e-05 | 137000 | B6 |
| 1.38 | 0.000201 | 146000 | B7 |
| 1.29 | 0.000181 | 141000 | B8 |
| 6.28 | 0.000362 | 57600 | B9 |
| 1.27 | 0.000151 | 119000 | B10 |
| 1.7 | 0.000238 | 140000 | B11 |
| 0.429 | 5.96e-05 | 139000 | B12 |
| 1.07 | 0.000155 | 144000 | B13 |
| 1.03 | 0.000152 | 148000 | B14 |
| 1.51 | 0.000201 | 134000 | B15 |

target: T2, human SIRPA v1 on BWZ cells (BWZ-huSIRPA) (human, UniProt P78324 31-504); assay: flow cytometry competition on BWZ-huSIRPA v1 cells, competitor: fluorophore-labelled reference m3F9
T2 construct: also called BWZ cells overexpressing human SIRPA; BWZ-huSIRPA v1 cells
T2 sequence (P78324 31-504): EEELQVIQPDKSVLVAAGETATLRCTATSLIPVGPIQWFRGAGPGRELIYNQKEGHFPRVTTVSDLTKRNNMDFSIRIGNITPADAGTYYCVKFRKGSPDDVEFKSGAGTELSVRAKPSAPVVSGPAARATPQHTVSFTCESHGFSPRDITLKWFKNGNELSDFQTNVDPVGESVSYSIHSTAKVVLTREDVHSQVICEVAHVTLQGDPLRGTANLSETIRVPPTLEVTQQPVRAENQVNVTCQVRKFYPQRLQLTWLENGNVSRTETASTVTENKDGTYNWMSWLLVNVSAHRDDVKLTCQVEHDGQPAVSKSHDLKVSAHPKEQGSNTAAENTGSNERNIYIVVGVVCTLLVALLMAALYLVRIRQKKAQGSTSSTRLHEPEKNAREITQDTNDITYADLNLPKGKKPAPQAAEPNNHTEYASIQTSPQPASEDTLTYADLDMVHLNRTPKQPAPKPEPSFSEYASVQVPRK
Description: IC50 values provide another comparison of relative affinity.

| IC50 [nM] | Binder |
| --- | --- |
| 4.61 | B16 |
| 2.19 | B17 |

target: T2, human SIRPA v1 on BWZ cells …; assay: flow cytometry titration on BWZ-huSIRPA cells, 4 C
Method: After addition of fluorescently labeled secondary antibody and brief washing steps, MFI values as a function of titrated antibody concentration was recorded via FACS analysis. […] Receptor bound antibodies were detected by staining cells with anti-human IgG PE secondary antibody. Curves were fit using nonlinear regression analysis with Graphpad Prism 6 software.

| EC50 [nM] | Binder |
| --- | --- |
| 0.96 | B2 |
| 0.49 | B5 |
| 0.51 | B6 |
| 0.61 | B11 |
| 0.64 | B14 |

target: T2, human SIRPA v1 on BWZ cells …; assay: flow cytometry titration on BWZ cells overexpressing huSIRPA, 4 C
Method: Receptor bound antibodies were detected by staining cells with anti-mouse IgG Fc APC or anti-human IgG PE secondary antibody. Serial dilutions of the monoclonal antibodies were added to 10⁵ BWZ cells overexpressing huSIRPA (BWZ-huSIRPA) and allowed to achieve binding equilibrium at 4° C. After addition of fluorescently labeled secondary antibody and brief washing steps, mean fluorescent intensity (MFI) values as a function of titrated antibody concentration was recorded via FACS analysis. Curves were fit using nonlinear regression analysis with Graphpad Prism 6 software.

| EC50 [nM] | Binder |
| --- | --- |
| 1.61 | B16 |
| 0.968 | B17 |

target: T3, human SIRPA on human macrophages (primary monocyte-derived macrophages; U937 line) (human, UniProt P78324 31-504); assay: cell-based or functional assay
T3 sequence (P78324 31-370): as the sequence (P78324 31-370 limits assumed) above

| IC50 (nM), SIRPA downregulation on human monocyte-derived macrophages [nM] | Max % DR, SIRPA, human monocyte-derived macrophages [%] | Binder |
| --- | --- | --- |
| 0.047 | 73.8 | B18 |

target: T3, human SIRPA on human macrophages …; assay: cell-based or functional assay; remark: another data set of the same source

| SIRPA IC50 (nM), downregulation on U937 cells [nM] | SIRPA Max % DR, U937 cells [%] | Binder |
| --- | --- | --- |
| 0.152 | 75 | B5 |
| 2.19 | 71 | B6 |

target: T4, histidine-tagged human SIRPA (Sino Biological) (human, UniProt P78324 31-370); assay: BLI (Octet RED96), antibody captured on anti-human IgG Fc sensor, His-tagged SIRPA in solution, 1:1 model
T4 construct: bought, soluble; also called histidine-tagged huSIRPA isoform 1; soluble SIRPA antigen; not shown: histidine tag
T4 sequence (P78324 31-370 limits assumed): as above
Method: Affinity measurements for the anti-SIRPA antibodies were performed as follows. Bio-layer interferometry (BLI) data were collected on a Pall ForteBio Octet RED96 instrument. Data analysis was performed using ForteBio Data Analysis Software, version 9.0. Standard kinetic buffer (PBS, 0.100 BSA, 0.02% Tween-20, pH 7.2) was used for the assay and for preparing reagents. […] Varying concentrations (0-200 nM) of histidine-tagged human SIRPA (Sino Biological, Beijing, China) were then bound to the captured anti-SIRPA surface (300 s association time, 600 s dissociation time). The resulting BLI signal was obtained as the difference in response from the reference (2.5 μg/mL IgG+0 nM SIRPA) sensor. […] Multi-concentration kinetic analysis was performed using a 1:1 interaction model to extract association and dissociation rate constants (ka and kd, respectively) for each antibody. Binding affinity constants (KD) were calculated from the ratio kd/ka.
Best-fit traces from the resulting sensorgrams were analyzed to calculate association rate, dissociation rate, and affinity values.

| Kd [nM] | koff [s⁻¹] | kon [M⁻¹ s⁻¹] | Binder |
| --- | --- | --- | --- |
| 11 | 0.00094 | 86000 | B16 |
| 20 | 0.0022 | 110000 | B17 |

target: T1, histidine-tagged human SIRPA v1 …; assay: BLI (Octet)
Method: as §1

| fold increase in affinity relative to parental h3F9 [fold] | Binder |
| --- | --- |
| ~10 | B4 |
| ~10 | B5 |
| ~10 | B6 |
| ~10 | B12 |

target: T3, human SIRPA on human macrophages …; assay: cell-based or functional assay; remark: another data set of the same source

| Phagocytosis, fold increase over baseline activity [fold] | SIRPA IC50 (nM), downregulation on human primary macrophages [nM] | SIRPA Max % DR, human primary macrophages [%] | Binder |
| --- | --- | --- | --- |
| 1.62 | 0.0283 | 90 | B5 |
| 1.52 | 0.0174 | 90 | B6 |

target: T3, human SIRPA on human macrophages …; assay: cell-based or functional assay; remark: another data set of the same source

| EC50 (nM), phagocytosis of A375 cells by primary human macrophages [nM] | Max, fold increase in phagocytosis over baseline activity [fold] | Binder |
| --- | --- | --- |
| 0.114 | 2.07 | B18 |
